Five substances from patent publication US20170174769A1 can be followed below.

Values joined by “and” are separate entries in the source; they are usually repeats but may differ in a detail not shown here. Equal values may be shown once.

For experiment [1], the target named is human KLB and human FGFR1c co-expressed on HEK293/hKLB/hFGFR1c/SRE-luc cells (human) (UniProt Q86Z14). Nature of the experiment: FACS on stable HEK293 cells, secondary antibody alone.
The target in experiment [2] is full-length human FGFR1c on HEK293/hFGFR1c/SRE-luc cells (human) (UniProt P11362). The experiment is described as above.
Sequence of full-length human FGFR1c on HEK293/hFGFR1c/SRE-luc cells (human) (P11362 other isoform, or with tags, fused parts or gaps limits assumed): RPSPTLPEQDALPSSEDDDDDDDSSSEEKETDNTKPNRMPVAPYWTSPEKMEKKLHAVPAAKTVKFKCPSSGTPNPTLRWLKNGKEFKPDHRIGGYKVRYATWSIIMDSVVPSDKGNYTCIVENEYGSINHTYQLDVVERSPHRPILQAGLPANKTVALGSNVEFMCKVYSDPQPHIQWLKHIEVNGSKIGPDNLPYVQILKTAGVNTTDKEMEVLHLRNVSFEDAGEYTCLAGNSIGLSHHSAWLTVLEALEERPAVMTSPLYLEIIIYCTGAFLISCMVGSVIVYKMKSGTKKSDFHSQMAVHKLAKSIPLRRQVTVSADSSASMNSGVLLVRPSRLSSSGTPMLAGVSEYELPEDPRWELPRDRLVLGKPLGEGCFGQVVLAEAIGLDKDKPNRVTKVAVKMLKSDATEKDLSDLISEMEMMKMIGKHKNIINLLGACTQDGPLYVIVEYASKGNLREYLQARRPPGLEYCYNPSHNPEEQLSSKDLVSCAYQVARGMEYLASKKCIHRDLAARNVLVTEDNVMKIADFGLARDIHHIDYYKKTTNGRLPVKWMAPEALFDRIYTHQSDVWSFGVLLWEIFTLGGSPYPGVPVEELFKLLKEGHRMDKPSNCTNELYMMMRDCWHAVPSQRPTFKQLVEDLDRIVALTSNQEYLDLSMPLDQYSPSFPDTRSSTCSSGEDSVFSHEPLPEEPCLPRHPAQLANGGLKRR
Experiment [3] deals with full-length human KLB on HEK293/hKLB/SRE-luc cells (human) (UniProt Q86Z14). Described as above.
Sequence of full-length human KLB on HEK293/hKLB/SRE-luc cells (human) (Q86Z14 whole entry): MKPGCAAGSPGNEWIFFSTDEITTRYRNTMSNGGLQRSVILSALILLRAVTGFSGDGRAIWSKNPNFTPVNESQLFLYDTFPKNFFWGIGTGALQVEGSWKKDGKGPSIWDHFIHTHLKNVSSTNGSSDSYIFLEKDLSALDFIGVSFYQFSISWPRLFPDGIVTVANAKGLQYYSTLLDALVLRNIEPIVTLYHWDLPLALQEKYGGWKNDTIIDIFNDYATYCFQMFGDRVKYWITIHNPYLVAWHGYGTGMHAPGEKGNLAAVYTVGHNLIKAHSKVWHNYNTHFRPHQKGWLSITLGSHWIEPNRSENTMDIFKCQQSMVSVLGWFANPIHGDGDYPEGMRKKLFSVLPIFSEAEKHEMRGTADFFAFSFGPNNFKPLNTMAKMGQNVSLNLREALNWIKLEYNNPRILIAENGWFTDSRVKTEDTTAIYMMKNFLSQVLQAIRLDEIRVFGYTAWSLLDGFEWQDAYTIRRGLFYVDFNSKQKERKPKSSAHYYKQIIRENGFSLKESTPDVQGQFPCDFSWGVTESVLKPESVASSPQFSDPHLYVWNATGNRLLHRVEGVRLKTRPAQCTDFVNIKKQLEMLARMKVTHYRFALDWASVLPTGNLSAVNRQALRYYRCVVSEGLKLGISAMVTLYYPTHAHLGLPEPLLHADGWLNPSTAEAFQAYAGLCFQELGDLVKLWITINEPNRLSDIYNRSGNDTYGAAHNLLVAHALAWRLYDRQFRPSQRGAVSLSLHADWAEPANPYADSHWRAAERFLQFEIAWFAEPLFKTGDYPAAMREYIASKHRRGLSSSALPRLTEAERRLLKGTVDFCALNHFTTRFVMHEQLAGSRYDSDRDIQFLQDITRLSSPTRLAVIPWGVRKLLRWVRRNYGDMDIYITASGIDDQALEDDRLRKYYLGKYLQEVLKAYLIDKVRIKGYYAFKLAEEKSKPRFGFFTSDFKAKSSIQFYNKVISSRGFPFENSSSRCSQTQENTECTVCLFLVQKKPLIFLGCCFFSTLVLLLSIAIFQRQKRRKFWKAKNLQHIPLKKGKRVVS
Experiment [4] concerns the target full-length human FGFR1c on HEK293/hFGFR1c/SRE-luc cells (human) (UniProt P11362). Kind of experiment: FACS on stable HEK293 cells, secondary antibody alone; row shifted one column to the left (c3 = 293/hFGFR1c).
For experiment [5], the target named is human KLB and human FGFR1c co-expressed on HEK293/hKLB/hFGFR1c/SRE-luc cells (human) (UniProt Q86Z14). Nature of the experiment: FACS on stable HEK293 cells, secondary antibody alone; row shifted one column to the left (c4 = 293/hFGFR1c/hKLB).
Experiment [6] has as its target mouse KLB and mouse FGFR1c co-expressed on HEK293/mKLB/mFGFR1c/SRE-Luc cells (mouse). Kind of experiment: FACS on stable HEK293 cells, secondary antibody alone; row shifted one column to the left (c5 = 293/mFGFR1c/mKLB).
In experiment [7] the target is human KLB and human FGFR1c co-expressed on HEK293/hKLB/hFGFR1c/SRE-luc cells (human) (UniProt Q86Z14). Kind of experiment: FACS on stable HEK293 cells.
The target in experiment [8] is full-length human FGFR1c on HEK293/hFGFR1c/SRE-luc cells (human) (UniProt P11362). Kind of experiment: FACS on stable HEK293 cells.
The target in experiment [9] is full-length human KLB on HEK293/hKLB/SRE-luc cells (human) (UniProt Q86Z14). Nature of the experiment: FACS on stable HEK293 cells.
For experiment [10], the target named is full-length human FGFR1c on HEK293/hFGFR1c/SRE-luc cells (human) (UniProt P11362). Kind of experiment: cell-based or functional assay.
Experiment [11] addresses cell-surface human FGFR1c alone (amino acids 1-731 of NP_075594) on HEK293/hFGFR1c/SRE-Luc cells of Example 19 (human) (UniProt P11362). Kind of experiment: cell-based or functional assay.

Sequence of human KLB and human FGFR1c co-expressed on HEK293/hKLB/hFGFR1c/SRE-luc cells (human) (Q86Z14 whole entry, chain 1 of 2): as the sequence (Q86Z14 whole entry) above
Sequence of human KLB and human FGFR1c co-expressed on HEK293/hKLB/hFGFR1c/SRE-luc cells (human) (chain, as listed by the source limits assumed, chain 2 of 2): as the sequence (P11362 other isoform, or with tags, fused parts or gaps limits assumed) above
Sequence of cell-surface human FGFR1c alone (amino acids 1-731 of NP_075594) on HEK293/hFGFR1c/SRE-Luc cells of Example 19 (human) (P11362 22-822): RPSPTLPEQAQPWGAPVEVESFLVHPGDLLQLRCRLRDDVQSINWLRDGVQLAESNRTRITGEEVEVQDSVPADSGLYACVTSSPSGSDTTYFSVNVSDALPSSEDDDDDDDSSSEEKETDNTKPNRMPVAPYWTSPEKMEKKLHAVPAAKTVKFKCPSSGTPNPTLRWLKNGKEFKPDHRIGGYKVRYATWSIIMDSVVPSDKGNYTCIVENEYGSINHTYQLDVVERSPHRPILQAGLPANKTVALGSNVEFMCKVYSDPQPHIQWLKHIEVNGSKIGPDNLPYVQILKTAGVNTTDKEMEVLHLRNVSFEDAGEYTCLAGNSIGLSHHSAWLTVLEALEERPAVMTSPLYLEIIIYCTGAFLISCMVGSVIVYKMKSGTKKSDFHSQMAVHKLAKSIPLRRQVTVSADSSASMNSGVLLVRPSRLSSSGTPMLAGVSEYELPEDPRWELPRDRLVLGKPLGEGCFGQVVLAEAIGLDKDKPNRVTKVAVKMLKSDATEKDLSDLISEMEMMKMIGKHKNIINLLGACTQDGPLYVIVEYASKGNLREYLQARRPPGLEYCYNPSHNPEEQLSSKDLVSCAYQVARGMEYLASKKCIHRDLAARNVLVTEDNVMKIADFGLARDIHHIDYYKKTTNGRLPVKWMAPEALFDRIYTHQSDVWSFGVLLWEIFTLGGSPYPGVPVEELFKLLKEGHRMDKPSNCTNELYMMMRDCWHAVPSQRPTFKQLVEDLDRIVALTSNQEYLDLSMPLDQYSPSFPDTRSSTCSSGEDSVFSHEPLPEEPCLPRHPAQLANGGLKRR

As to Anti-Human IgG Secondary Antibody, the binding ratio to unstained cells in experiment [1] turned out to be 1 fold; in [2], 1 fold; in experiment [3], 2 fold. Moreover, the MFI Ratio to unstained cells in experiment [4], in experiment [5] and in experiment [6] was 1 fold in each case.

For Anti-Mouse IgG Secondary Antibody, the binding ratio to unstained cells in experiment [1], in experiment [2] and in [3] was 1 fold throughout.

Turning to Irrelevant IgG control 1 (antibody), the binding ratio to unstained cells in experiment [7] came out at 2 fold; in experiment [8], 1 fold; in [9], 1 fold.

Turning to Irrelevant IgG control 2 (antibody), the binding ratio to unstained cells in experiment [7], in experiment [8] and in experiment [9] was 2 fold throughout.

As to “human FGF2 (hFGF2; R&D Systems, #233-FB/CF) (from UniProt P09038 143-288) (ligand)”, the EC50, SRE-luc activation by ligand in [10] was 0.4 nM and 0.8 nM. Further, the EC50, SRE-luc activation in experiment [11] was found to be 1.6 nM.
